Measured values published in patent publication US20180333502A1 (published 2018).
Residue numbers refer to the chain shown, from its start. In names and notes the source's numbering stands.

T1: human CD73 on Calu6 cells (human, UniProt P21589 27-549)
T1 sequence (looked up): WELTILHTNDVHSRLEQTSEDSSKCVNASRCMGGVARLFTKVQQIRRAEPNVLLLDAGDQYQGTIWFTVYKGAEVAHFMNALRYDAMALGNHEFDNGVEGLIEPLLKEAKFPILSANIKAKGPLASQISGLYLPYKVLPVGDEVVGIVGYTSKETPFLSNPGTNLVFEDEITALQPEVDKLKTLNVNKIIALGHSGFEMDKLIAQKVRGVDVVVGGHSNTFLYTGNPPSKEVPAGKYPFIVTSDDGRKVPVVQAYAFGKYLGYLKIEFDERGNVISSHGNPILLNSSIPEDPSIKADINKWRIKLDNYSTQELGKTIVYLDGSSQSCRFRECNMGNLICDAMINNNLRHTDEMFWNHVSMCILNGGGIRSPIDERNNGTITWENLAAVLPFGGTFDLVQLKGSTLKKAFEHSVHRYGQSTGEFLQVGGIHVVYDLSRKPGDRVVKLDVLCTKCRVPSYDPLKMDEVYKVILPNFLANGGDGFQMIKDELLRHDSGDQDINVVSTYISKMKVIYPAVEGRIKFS

T2: human GITR on cells (activated human T cells; 3A9-hGITR cells) (human, UniProt Q9Y5U5 26-241)
T2 sequence (looked up): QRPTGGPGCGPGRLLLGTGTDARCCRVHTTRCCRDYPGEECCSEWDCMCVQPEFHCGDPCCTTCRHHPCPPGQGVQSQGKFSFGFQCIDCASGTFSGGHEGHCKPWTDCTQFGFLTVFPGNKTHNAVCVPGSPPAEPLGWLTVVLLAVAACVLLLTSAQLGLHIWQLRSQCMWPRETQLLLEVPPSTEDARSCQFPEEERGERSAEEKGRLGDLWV

B1: CD73.10-IgG2-C219S (antibody)
heavy: QVQLVESGGGVVQPGRSLRLSCAASGFTFSNYGMHWVRQAPGKGLEWVAVIWYDESNKYYPDSVKGRFTISRDNSKNTLYLQMNSLRAEDTAVYYCARGGSSWYPDSFDIWGQGTMVTVSSASTKGPSVFPLAPCSRSTSESTAALGCLVKDYFPEPVTVSWNSGALTSGVHTFPAVLQSSGLYSLSSVVTVPSSNFGTQTYTCNVDHKPSNTKVDKTVERKSCVECPPCPAPPVAGPSVFLFPPKPKDTLMISRTPEVTCVVVDVSHEDPEVQFNWYVDGVEVHNAKTKPREEQFNSTFRVVSVLTVVHQDWLNGKEYKCKVSNKGLPAPIEKTISKTKGQPREPQVYTLPPSREEMTKNQVSLTCLVKGFYPSDIAVEWESNGQPENNYKTTPPMLDSDGSFFLYSKLTVDKSRWQQGNVFSCSVMHEALHNHYTQKSLSLSPG
light: not shown
B2: CD73.10-IgG2-C219S-IgG1.1 (antibody)
heavy: B1 heavy with Q274K, F296Y, F300Y, V309L, G327A, A330S, P331S, T339A
light: not shown
B3: anti-GITR-IgG2 (antibody)
heavy: QVQLVESGGGVVQPGRSLRLSCAASGFTFSSYGMHWVRQAPGKGLEWVAVIWYEGSNKYYADSVKGRFTISRDNSKNTLYLQMNSLRAEDTAVYYCARGGSMVRGDYYYGMDVWGQGTTVTVSSASTKGPSVFPLAPCSRSTSESTAALGCLVKDYFPEPVTVSWNSGALTSGVHTFPAVLQSSGLYSLSSVVTVPSSNFGTQTYTCNVDHKPSNTKVDKTVERKCCVECPPCPAPPVAGPSVFLFPPKPKDTLMISRTPEVTCVVVDVSHEDPEVQFNWYVDGVEVHNAKTKPREEQFNSTFRVVSVLTVVHQDWLNGKEYKCKVSNKGLPAPIEKTISKTKGQPREPQVYTLPPSREEMTKNQVSLTCLVKGFYPSDIAVEWESNGQPENNYKTTPPMLDSDGSFFLYSKLTVDKSRWQQGNVFSCSVMHEALHNHYTQKSLSLSPGK
light: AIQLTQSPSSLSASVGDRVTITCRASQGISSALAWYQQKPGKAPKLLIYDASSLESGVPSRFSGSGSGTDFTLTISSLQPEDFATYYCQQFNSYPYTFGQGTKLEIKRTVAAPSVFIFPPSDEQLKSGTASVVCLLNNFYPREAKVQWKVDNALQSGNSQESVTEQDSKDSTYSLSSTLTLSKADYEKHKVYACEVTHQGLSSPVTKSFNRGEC
B4: 11F11 (antibody, human IgG2, kappa, V domains shown)
VH: QVQLVESGGGVVQPGRSLRLSCATSGFTFSNYGMHWVRQAPGKGLEWVAVILYDGSNKYYPDSVKGRFTISRDNSKNTLYLQMNSLRAEDTAVYYCARGGSSWYPDSFDIWGQGTMVTVSS
VL: DIQMTQSPSSLSASVGDRVTITCRASQGISSWLAWYQQKPEKAPKSLIYAASSLQSGVPSRFSGSGSGTDFTLTISSLQPEDFATYYCQQYNSYPLTFGGGTKVEIKR
B5: CD73.4-IgG2.3G1.1f-KH (antibody)
heavy: QVQLVESGGGVVQPGRSLRLSCAASGFTFSNYGMHWVRQAPGKGLEWVAVILYDGSNKYYPDSVKGRFTISRDNSKNTLYLQMNSLRAEDTAVYYCARGGSSWYPDSFDIWGQGTMVTVSSASTKGPSVFPLAPCSRSTSESTAALGCLVKDYFPEPVTVSWNSGALTSGVHTFPAVLQSSGLYSLSSVVTVPSSNFGTQTYTCNVDHKPSNTKVDKTVERKSCVECPPCPAPPVAGPSVFLFPPKPKDTLMISRTPEVTCVVVDVSHEDPEVKFNWYVDGVEVHNAKTKPREEQYNSTYRVVSVLTVLHQDWLNGKEYKCKVSNKALPSSIEKTISKAKGQPREPQVYTLPPSREEMTKNQVSLTCLVKGFYPSDIAVEWESNGQPENNYKTTPPVLDSDGSFFLYSKLTVDKSRWQQGNVFSCSVMHEALHNHYTQKSLSLSPGK
light: not shown

Experiments:
[1] = target: T1, human CD73 on Calu6 cells; experiment: cell-based or functional assay
[2] = target: T2, human GITR on cells (activated human T …); experiment: cell-based or functional assay

Binder	Ymax, CD73 internalization, Calu6 cells, 2 h [1]	Emax (%), phospho-p65 NFkB signaling, CD4+ T cells [2]	Emax (%), phospho-p65 NFkB signaling, CD8+ T cells [2]
B1	99 % of 100 nM 11F11		
B2	99 % of 100 nM 11F11		
B3		69 % of GITR.6.G2.G1f	85 % of GITR.6.G2.G1f
B4	98 % of 100 nM 11F11		
B5	97 % of 100 nM 11F11		
